Patent US20020168372A1 (published 2002)

Target: the molecule itself
Experiment: self-assembly; CsCl gradient and TEM

Protein | binding result
HPV16 L1 protein of clone P114/16/11 (114/K) (other, Differs from prototype L1 only by His202Asp; Expressed in Sf-9 insect cells; self-assembles into VLP; also called 114K-L1; 114/K-L1) MSLWLPSEATVYLPPVPVSKVVSTDEYVARTNIYYHAGTSRLLAVGHPYFPIKKPNNNKILVPKVSGLQYRVFRIHLPDPNKFGFPDTSFYNPDTQRLVWACVGVEVGRGQPLGVGISGHPLLNKLDDTENASAYAANAGVDNRECISMDYKQTQLCLIGCKPPIGEHWGKGSPCTNVAVNPGDCPPLELINTVIQDGDMVDTGFGAMDFTTLQANKSEVPLDICTSICKYPDYIKMVSEPYGDSLFFYLRREQMFVRHLFNRAGTVGENVPDDLYIKGSGSTANLASSNYFPTPSGSMVTSDAQIFNKPYWLQRAQGHNNGICWGNQLFVTVVDTTRSTNMSLCAAISTSETTYKNTNFKEYLRHGEEYDLQFIFQLCKITLTADVMTYIHSMNSTILEDWNFGLQPPPGGTLEDTYRFVTSQAIACQKHTPPAPKEDPLKKYTFWEVNLKEKFSADLDQFPLGRKFLLQAGLKAKPKFTLGKRKATPTTSSTSTTAKRKKRKL | binds
HPV16 L1 protein of clone P114/16/2 (114/B) (other, Differs from prototype L1 by Val194Ile, His202Asp and Thr266Ala; Expressed in Sf-9 insect cells; self-assembles into VLP) MSLWLPSEATVYLPPVPVSKVVSTDEYVARTNIYYHAGTSRLLAVGHPYFPIKKPNNNKILVPKVSGLQYRVFRIHLPDPNKFGFPDTSFYNPDTQRLVWACVGVEVGRGQPLGVGISGHPLLNKLDDTENASAYAANAGVDNRECISMDYKQTQLCLIGCKPPIGEHWGKGSPCTNVAVNPGDCPPLELINTIIQDGDMVDTGFGAMDFTTLQANKSEVPLDICTSICKYPDYIKMVSEPYGDSLFFYLRREQMFVRHLFNRAGAVGENVPDDLYIKGSGSTANLASSNYFPTPSGSMVTSDAQIFNKPYWLQRAQGHNNGICWGNQLFVTVVDTTRSTNMSLCAAISTSETTYKNTNFKEYLRHGEEYDLQFIFQLCKITLTADVMTYIHSMNSTILEDWNFGLQPPPGGTLEDTYRFVTSQAIACQKHTPPAPKEDPLKKYTFWEVNLKEKFSADLDQFPLGRKFLLQAGLKAKPKFTLGKRKATPTTSSTSTTAKRKKRKL | binds
